Source: patent publication US20020142457A1, “Cell having the potentiality of differentiation into cardiomyocytes” (priority 1999, published 2002)
Ends that are not written are not given here.

B1: BMP4: bone morphogenic protein 4, cytokine (protein, UniProt P12644 293-408, looked up)
Bone morphogenetic protein 4: SPKHHSQRARKKNKNCRRHSLYVDFSDVGWNDWIVAPPGYQAFYCHGDCPFPLADHLNSTNHAIVQTLVNSVNSSIPKACCVPTELSAISMLYLDEYDKVVLKNYQEMVVEGCGCR
B2: midkine: cytokine, amino acid sequence SEQ ID NO:68 (protein, listed as Homo sapiens)
chain: MQHRGFLLLTLLALLALTSAVAKKKDKVKKGGPGSECAEWAWGPCTPSSKDCGVGFREGTCGAQTQRIRCRVPCNWKKEFGADCKYKFENWGACDGGTGTKVRQGTLKKARYNAQCQETIRVTKPCTPKTKAKAKAKKGKGKD
modifications: CDS (1)..(432)
B3: FGF-8: fibroblast growth factor 8, cytokine (protein, UniProt P55075 23-233, looked up)
Fibroblast growth factor 8: QEGPGRGPALGRELASLFRAGREPQGVSQQHVREQSLVTDQLSRRLIRTYQLYSRTSGKHVQVLANKRINAMAEDGDPFAKLIVETDTFGSRVRVRGAETGLYICMNKKGKLIAKSNGKGKDCVFTEIVLENNYTALQNAKYEGWYMAFTRKGRPRKGSKTRQHQREVHFMKRLPRGHHTTEQSLRFEFLNYPPFTRSLRGSQRTWAPEPR

How the values were obtained:
[1] = test system: Nkx2.5/Csx and GATA4 co-forced expressing bone marrow cells (BMSC-Nkx2.5-GATA4); assay: Quantitative PCR of genes expressed in myotubes from BMSC-Nkx2.5-GATA4; format: cell-based, mouse; settings: BMSC-Nkx2.5-GATA4, 5-aza-C 3 μM, cytokine 10 ng/ml
From the text: From the myotubes thus obtained, RNAs were collected and genes expressed in the myotubes were subjected to quantitative PCR analysis using the synthetic oligonucleotides represented by SEQ ID NOS:71 to 78.

[2] = test system: bone marrow cell (BMSC-MesP1); assay: Differentiation of BMSC-MesP1 with cytokines, phase contrast microscope; format: cell-based, mouse; settings: BMSC-MesP1, 5-aza-C 3 μM; cytokine 10 ng/ml; four weeks
Experimental: A mouse bone marrow-derived pluripotent stem cell (BMSC-MesP1) having the potential to differentiate into cardiomyocytes in which the MesP1 gene was forced-expressed was obtained using a retrovirus vector in the same manner as in Example 6, and then the differentiation was induced to examine efficiency of differentiation into cardiomyocytes.
The bone marrow cell (BMSC-MesP1) having the potential to differentiate into cardiomyocytes in which MesP1 was forced expressed was plated into a 60-mm culture dish in a density of 2×10^4 cells/ml and cultured at 33° C. in a 5% CO2-incubator. On the next day, 5-aza-C was added to the culture medium to give a final concentration of 3 μM, followed by culturing under five different conditions, namely (i) addition of FGF-8 to give a final concentration of 10 ng/ml (culture dish N), (ii) addition of ET-1 to give a final concentration of 10 ng/ml (culture dish P), (iii) addition of Midkine to give a final concentration of 10 ng/ml (culture dish Q), (iv) addition of BMP4 to give a final concentration of 10 ng/ml (culture dish R), and (v) no addition (culture dish S).
On the next day, the medium was exchanged with a fresh medium in order to eliminate 5-aza-C from the medium, and then the culturing was continued by adding FGF-8 to the culture dish N to give a final concentration of 10 ng/ml, ET-1 to the culture dish P to give a final concentration of 10 ng/ml, Midkine to the culture dish Q to give a final concentration of 10 ng/ml and BMP4 to the culture dish R to give a final concentration of 10 ng/ml. Two days and 4 days thereafter, the medium exchange and addition of FGF-8, ET-1, Midkine or BMP4 were carried out similarly.
Four weeks after the addition of 5-aza-C, morphology of the cells was observed under a phase contrast microscope. As a result, the number of myotube-like cells was not changed greatly by the forced expression of MesP1. In addition, about 50% of the cells became myotube-like cells in the culture dish to which FGF-8, ET-1, Midkine or BMP4 had been added.

Molecule | expression of cTnI and ANP promoted by forced expression of Nkx2.5/Csx and GATA4 [1] | cells became myotube-like cells [2]
ET-1: endothelin 1, cytokine (CSCSSLMDKECVYFCHLDIIW; ends and bridges not checked; cysteine pairing not given here; UniProt P05305 53-73, looked up) | did not further promote | about 50%
B1 | did not further promote | about 50%
B2 | did not further promote | about 50%
B3 | did not further promote | about 50%
